Measured values: CN112079917A (CANVEST WUHAN BIOTECHNOLOGY CO LTD, dated 2020)

Tests used:
BSA = BSA (UniProt P02769 25-607); assay: ELISA, IgG form
[1] = molecular target: SH02 HA毒株 (A/Shanghai/2/2013 H7N9) HA蛋白 (influenza A virus A/Shanghai/2/2013 H7N9); assay: ELISA, IgG form on HA protein
[2] = molecular target: 17SF HA毒株 (A/Guangdong/17SF003/2016) HA蛋白 (influenza A virus A/Guangdong/17SF003/2016 (H7N9)); assay: ELISA, IgG form on HA protein

Chain of BSA (P02769 25-607 limits assumed): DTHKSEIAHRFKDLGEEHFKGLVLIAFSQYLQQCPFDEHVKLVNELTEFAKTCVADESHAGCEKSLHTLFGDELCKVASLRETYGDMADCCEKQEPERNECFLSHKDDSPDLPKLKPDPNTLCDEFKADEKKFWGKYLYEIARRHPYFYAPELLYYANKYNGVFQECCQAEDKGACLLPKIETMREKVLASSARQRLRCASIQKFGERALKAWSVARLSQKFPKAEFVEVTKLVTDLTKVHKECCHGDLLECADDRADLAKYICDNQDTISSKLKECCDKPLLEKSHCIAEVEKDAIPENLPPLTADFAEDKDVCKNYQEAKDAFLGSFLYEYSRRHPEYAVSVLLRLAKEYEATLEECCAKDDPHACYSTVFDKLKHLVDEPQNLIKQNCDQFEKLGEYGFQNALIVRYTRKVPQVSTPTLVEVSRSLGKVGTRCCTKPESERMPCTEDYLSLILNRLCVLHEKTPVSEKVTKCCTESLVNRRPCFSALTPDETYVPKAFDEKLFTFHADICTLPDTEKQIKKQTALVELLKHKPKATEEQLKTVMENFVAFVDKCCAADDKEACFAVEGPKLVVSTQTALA

B1: H7N9病毒特异性识别抗体P51H08 (IgG形式) (antibody, V domains shown)
VH: QVQLVQSGGGLVQPGGSMRLSCAASGFTFSSYAMSWVRQAPGKGLEWVSGISGSGGSTYYADSVKGRFTISRDNSKNTLHLPMNSLRADDTAVYYCAKDLNWWPDYWGQGTLVTVSS
VL: SYVLTQPPSVSVAPGKTASMTCGGNNIGSKRVHWYQQKPGQAPVLVVYNDNERPSAIPERFSGSNSGNTATLTVSRVEAGDEADYYCLVWDSSSLHRVFGGGTKLTVLG
In the case of B1, the binding result (BSA) is reported as “no binding”, the EC50 [1] is reported as 1.65 nM and the EC50 [2] is reported as 3.56 nM.
